Assay results published in patent publication US20090311243A1.
Values belong to the substance of their own block, whether it stands above or below them.

Legend:
[1] = target: recombinant Wnt3a protein (R&D systems); assay: cell-based or functional assay
[2] = target: human Fzd8 (human) (UniProt Q9H461); assay: cell-based or functional assay
Chain of UniProt Q9H461 (Q9H461 28-694): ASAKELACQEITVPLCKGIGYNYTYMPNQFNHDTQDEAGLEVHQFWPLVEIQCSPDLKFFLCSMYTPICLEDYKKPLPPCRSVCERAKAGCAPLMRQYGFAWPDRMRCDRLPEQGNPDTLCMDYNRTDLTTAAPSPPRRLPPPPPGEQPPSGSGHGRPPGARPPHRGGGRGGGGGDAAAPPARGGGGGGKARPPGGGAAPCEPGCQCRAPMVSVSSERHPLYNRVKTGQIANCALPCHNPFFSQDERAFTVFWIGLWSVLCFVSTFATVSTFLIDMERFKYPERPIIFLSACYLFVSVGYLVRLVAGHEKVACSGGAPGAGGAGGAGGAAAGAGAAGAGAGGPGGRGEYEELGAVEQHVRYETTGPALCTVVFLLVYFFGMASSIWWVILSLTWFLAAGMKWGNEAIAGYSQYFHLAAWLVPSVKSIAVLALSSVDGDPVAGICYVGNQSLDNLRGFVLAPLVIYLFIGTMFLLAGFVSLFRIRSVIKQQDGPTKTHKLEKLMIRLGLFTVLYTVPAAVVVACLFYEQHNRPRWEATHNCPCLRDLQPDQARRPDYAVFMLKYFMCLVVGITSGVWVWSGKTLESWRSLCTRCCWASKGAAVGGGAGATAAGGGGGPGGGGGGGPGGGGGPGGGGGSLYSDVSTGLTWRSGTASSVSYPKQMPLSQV

Chain of recombinant Wnt3a protein (R&D systems) (P27467 19-352): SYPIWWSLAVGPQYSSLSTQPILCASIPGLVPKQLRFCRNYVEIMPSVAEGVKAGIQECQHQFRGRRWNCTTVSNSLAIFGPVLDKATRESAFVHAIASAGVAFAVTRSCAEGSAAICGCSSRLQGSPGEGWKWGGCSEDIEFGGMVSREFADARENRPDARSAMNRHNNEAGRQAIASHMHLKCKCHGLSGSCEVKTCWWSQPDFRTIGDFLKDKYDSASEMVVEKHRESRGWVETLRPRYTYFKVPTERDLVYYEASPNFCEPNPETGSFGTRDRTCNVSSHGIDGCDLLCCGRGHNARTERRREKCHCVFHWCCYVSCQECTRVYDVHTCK

ND50, inhibition of Wnt3a-induced TCF reporter luciferase activity in Fzd8:CHOK1 cells [1]: 0.027 µg/mL
Substance: murine Fzd8 CRD Fc fusion (R&D systems) (from UniProt Q61091 28-173)

TCF/LEF reporter (TOPFlash) luciferase activity, normalized to Renilla luciferase [2]: 10.4 fold
Substance: recombinant Wnt3a protein (R&D systems) (ligand)

Wnt8a mediated SOX9 mRNA reduction in primary chondrocytes, rescue by Fzd8 siRNA (quantitative PCR) [2]: 52%
Substance: human Wnt8a (from UniProt Q9H1J5 25-351) (ligand)
